Assay results as given in US20130177579A1 (BIOALLIANCE C V, published 2013).

Experiments:
[1] = target: human CD41a on platelets (human) (UniProt P08514); assay: FACS, platelets, donor D014, positive control
[2] = target: human CD41a on platelets (human) (UniProt P08514); assay: FACS, platelets, donor D016, positive control
[3] = target: human CD41a on platelets (human) (UniProt P08514); assay: FACS, platelets, donor D005, positive control
[4] = target: human CD41a on platelets (human) (UniProt P08514); assay: FACS, platelets, donor D102, positive control
[5] = target: human transferrin receptor expressed by nonhematopoietic cancer cells (human) (UniProt P02786); assay: FACS, DLD-1 cells, 5 ug
human transferrin receptor expressed by nonhematopoietic cancer cells (human), sequence (P02786 whole entry G142S): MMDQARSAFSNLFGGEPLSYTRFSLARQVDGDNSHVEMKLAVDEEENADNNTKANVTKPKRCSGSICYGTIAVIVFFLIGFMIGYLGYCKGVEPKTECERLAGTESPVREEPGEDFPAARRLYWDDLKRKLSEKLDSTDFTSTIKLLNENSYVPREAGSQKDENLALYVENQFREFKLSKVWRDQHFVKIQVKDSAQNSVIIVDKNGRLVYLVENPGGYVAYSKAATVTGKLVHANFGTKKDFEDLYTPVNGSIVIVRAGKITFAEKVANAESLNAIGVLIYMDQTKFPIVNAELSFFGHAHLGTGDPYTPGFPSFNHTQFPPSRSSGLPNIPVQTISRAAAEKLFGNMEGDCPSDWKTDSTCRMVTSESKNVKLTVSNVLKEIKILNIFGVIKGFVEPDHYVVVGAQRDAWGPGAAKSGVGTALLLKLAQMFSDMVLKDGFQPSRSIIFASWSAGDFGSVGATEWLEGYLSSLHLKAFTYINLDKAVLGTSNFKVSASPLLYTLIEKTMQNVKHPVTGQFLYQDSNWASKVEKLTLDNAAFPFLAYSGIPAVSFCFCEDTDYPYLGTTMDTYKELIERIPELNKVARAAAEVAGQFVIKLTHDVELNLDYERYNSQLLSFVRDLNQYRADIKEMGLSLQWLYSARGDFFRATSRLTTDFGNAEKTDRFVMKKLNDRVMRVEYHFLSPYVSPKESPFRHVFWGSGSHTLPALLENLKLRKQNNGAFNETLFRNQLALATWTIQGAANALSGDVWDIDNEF

[6] = target: human transferrin receptor expressed by normal human cells (RBC, PMN, lymphocytes, monocytes, platelets, HUVEC) (human) (UniProt P02786); assay: FACS, RBC, donor D016
human transferrin receptor expressed by normal human cells (RBC, PMN, lymphocytes, monocytes, platelets, HUVEC) (human), sequence (P02786 whole entry G142S): as above

[7] = target: human transferrin receptor expressed by normal human cells (RBC, PMN, lymphocytes, monocytes, platelets, HUVEC) (human) (UniProt P02786); assay: FACS, lymphocytes, donor D102
[8] = target: human transferrin receptor expressed by normal human cells (RBC, PMN, lymphocytes, monocytes, platelets, HUVEC) (human) (UniProt P02786); assay: FACS, HUVEC, 5 ug/ml
[9] = target: human transferrin receptor expressed by nonhematopoietic cancer cells (human) (UniProt P02786); assay: FACS, WiDr cells, 5 ug
[10] = target: human transferrin receptor expressed by nonhematopoietic cancer cells (human) (UniProt P02786); assay: FACS, H520 cells, 5 ug
[11] = target: human transferrin receptor expressed by normal human cells (RBC, PMN, lymphocytes, monocytes, platelets, HUVEC) (human) (UniProt P02786); assay: FACS, platelets, donor D005
[12] = target: human transferrin receptor expressed by normal human cells (RBC, PMN, lymphocytes, monocytes, platelets, HUVEC) (human) (UniProt P02786); assay: FACS, monocytes, donor D014
[13] = target: human transferrin receptor expressed by normal human cells (RBC, PMN, lymphocytes, monocytes, platelets, HUVEC) (human) (UniProt P02786); assay: FACS, RBC, donor D005
[14] = target: human transferrin receptor expressed by normal human cells (RBC, PMN, lymphocytes, monocytes, platelets, HUVEC) (human) (UniProt P02786); assay: FACS, monocytes, donor D016
[15] = target: human transferrin receptor expressed by nonhematopoietic cancer cells (human) (UniProt P02786); assay: FACS, NCI-N87 cells, 5 ug
[16] = target: human transferrin receptor expressed by nonhematopoietic cancer cells (human) (UniProt P02786); assay: FACS, A549 cells, 5 ug
[17] = target: human transferrin receptor expressed by normal human cells (RBC, PMN, lymphocytes, monocytes, platelets, HUVEC) (human) (UniProt P02786); assay: FACS, monocytes, donor D005
[18] = target: human transferrin receptor expressed by nonhematopoietic cancer cells (human) (UniProt P02786); assay: FACS, 22Rv1 cells, 5 ug
[19] = target: human transferrin receptor expressed by nonhematopoietic cancer cells (human) (UniProt P02786); assay: FACS, Hep 3B2.1-7 cells, 5 ug
[20] = target: human transferrin receptor expressed by nonhematopoietic cancer cells (human) (UniProt P02786); assay: FACS, Hep G2 cells, 5 ug
[21] = target: human transferrin receptor expressed by normal human cells (RBC, PMN, lymphocytes, monocytes, platelets, HUVEC) (human) (UniProt P02786); assay: FACS, platelets, donor D014
[22] = target: human transferrin receptor expressed by normal human cells (RBC, PMN, lymphocytes, monocytes, platelets, HUVEC) (human) (UniProt P02786); assay: FACS, RBC, donor D014
[23] = target: human transferrin receptor expressed by normal human cells (RBC, PMN, lymphocytes, monocytes, platelets, HUVEC) (human) (UniProt P02786); assay: FACS, lymphocytes, donor D014
[24] = target: human transferrin receptor expressed by normal human cells (RBC, PMN, lymphocytes, monocytes, platelets, HUVEC) (human) (UniProt P02786); assay: FACS, PMN, donor D016
[25] = target: human transferrin receptor expressed by nonhematopoietic cancer cells (human) (UniProt P02786); assay: FACS, PC3 cells, 5 ug
[26] = target: human transferrin receptor expressed by normal human cells (RBC, PMN, lymphocytes, monocytes, platelets, HUVEC) (human) (UniProt P02786); assay: FACS, PMN, donor D005
[27] = target: human transferrin receptor expressed by nonhematopoietic cancer cells (human) (UniProt P02786); assay: FACS, COLO205 cells, 5 ug
[28] = target: human transferrin receptor expressed by normal human cells (RBC, PMN, lymphocytes, monocytes, platelets, HUVEC) (human) (UniProt P02786); assay: FACS, lymphocytes, donor D016
[29] = target: human transferrin receptor expressed by nonhematopoietic cancer cells (human) (UniProt P02786); assay: FACS, KLE cells, 5 ug
[30] = target: human transferrin receptor expressed by nonhematopoietic cancer cells (human) (UniProt P02786); assay: FACS, Panc02.03B cells, 5 ug
[31] = target: human transferrin receptor expressed by nonhematopoietic cancer cells (human) (UniProt P02786); assay: FACS, H358 cells, 5 ug
[32] = target: human transferrin receptor expressed by normal human cells (RBC, PMN, lymphocytes, monocytes, platelets, HUVEC) (human) (UniProt P02786); assay: FACS, PMN, donor D102
[33] = target: human transferrin receptor expressed by normal human cells (RBC, PMN, lymphocytes, monocytes, platelets, HUVEC) (human) (UniProt P02786); assay: FACS, platelets, donor D102
[34] = target: human transferrin receptor expressed by nonhematopoietic cancer cells (human) (UniProt P02786); assay: FACS, SK-OV-3 cells, 5 ug
[35] = target: human transferrin receptor expressed by nonhematopoietic cancer cells (human) (UniProt P02786); assay: FACS, Panc-1 cells, 5 ug
[36] = target: human transferrin receptor expressed by nonhematopoietic cancer cells (human) (UniProt P02786); assay: FACS, DU145 cells, 5 ug
[37] = target: human transferrin receptor expressed by normal human cells (RBC, PMN, lymphocytes, monocytes, platelets, HUVEC) (human) (UniProt P02786); assay: FACS, PMN, donor D014
[38] = target: human transferrin receptor expressed by nonhematopoietic cancer cells (human) (UniProt P02786); assay: FACS, HEC-1-A cells, 5 ug
[39] = target: human transferrin receptor expressed by nonhematopoietic cancer cells (human) (UniProt P02786); assay: FACS, Kato III cells, 5 ug
[40] = target: human transferrin receptor expressed by normal human cells (RBC, PMN, lymphocytes, monocytes, platelets, HUVEC) (human) (UniProt P02786); assay: FACS, lymphocytes, donor D005
[41] = target: human transferrin receptor expressed by normal human cells (RBC, PMN, lymphocytes, monocytes, platelets, HUVEC) (human) (UniProt P02786); assay: FACS, monocytes, donor D102
[42] = target: human transferrin receptor expressed by normal human cells (RBC, PMN, lymphocytes, monocytes, platelets, HUVEC) (human) (UniProt P02786); assay: FACS, RBC, donor D102
[43] = target: human transferrin receptor expressed by nonhematopoietic cancer cells (human) (UniProt P02786); assay: FACS, SU.86.86 cells, 5 ug
[44] = target: human transferrin receptor expressed by nonhematopoietic cancer cells (human) (UniProt P02786); assay: FACS, SNU-16 cells, 5 ug
[45] = target: human transferrin receptor expressed by nonhematopoietic cancer cells (human) (UniProt P02786); assay: FACS, OMC-3 cells, 5 ug
[46] = target: human transferrin receptor expressed by nonhematopoietic cancer cells (human) (UniProt P02786); assay: FACS, MDA-MB-453 cells, 5 ug
[47] = target: human transferrin receptor expressed by normal human cells (RBC, PMN, lymphocytes, monocytes, platelets, HUVEC) (human) (UniProt P02786); assay: FACS, platelets, donor D016
[48] = target: human transferrin receptor expressed by nonhematopoietic cancer cells (human) (UniProt P02786); assay: FACS, H727 cells, 5 ug
[49] = target: human transferrin receptor expressed by Jurkat cells (human) (UniProt P02786); assay: FACS, Jurkat cells, 1 ug
human transferrin receptor expressed by Jurkat cells (human), sequence (P02786 whole entry G142S): as above

human CD41a on platelets (human), sequence (P08514 32-1039): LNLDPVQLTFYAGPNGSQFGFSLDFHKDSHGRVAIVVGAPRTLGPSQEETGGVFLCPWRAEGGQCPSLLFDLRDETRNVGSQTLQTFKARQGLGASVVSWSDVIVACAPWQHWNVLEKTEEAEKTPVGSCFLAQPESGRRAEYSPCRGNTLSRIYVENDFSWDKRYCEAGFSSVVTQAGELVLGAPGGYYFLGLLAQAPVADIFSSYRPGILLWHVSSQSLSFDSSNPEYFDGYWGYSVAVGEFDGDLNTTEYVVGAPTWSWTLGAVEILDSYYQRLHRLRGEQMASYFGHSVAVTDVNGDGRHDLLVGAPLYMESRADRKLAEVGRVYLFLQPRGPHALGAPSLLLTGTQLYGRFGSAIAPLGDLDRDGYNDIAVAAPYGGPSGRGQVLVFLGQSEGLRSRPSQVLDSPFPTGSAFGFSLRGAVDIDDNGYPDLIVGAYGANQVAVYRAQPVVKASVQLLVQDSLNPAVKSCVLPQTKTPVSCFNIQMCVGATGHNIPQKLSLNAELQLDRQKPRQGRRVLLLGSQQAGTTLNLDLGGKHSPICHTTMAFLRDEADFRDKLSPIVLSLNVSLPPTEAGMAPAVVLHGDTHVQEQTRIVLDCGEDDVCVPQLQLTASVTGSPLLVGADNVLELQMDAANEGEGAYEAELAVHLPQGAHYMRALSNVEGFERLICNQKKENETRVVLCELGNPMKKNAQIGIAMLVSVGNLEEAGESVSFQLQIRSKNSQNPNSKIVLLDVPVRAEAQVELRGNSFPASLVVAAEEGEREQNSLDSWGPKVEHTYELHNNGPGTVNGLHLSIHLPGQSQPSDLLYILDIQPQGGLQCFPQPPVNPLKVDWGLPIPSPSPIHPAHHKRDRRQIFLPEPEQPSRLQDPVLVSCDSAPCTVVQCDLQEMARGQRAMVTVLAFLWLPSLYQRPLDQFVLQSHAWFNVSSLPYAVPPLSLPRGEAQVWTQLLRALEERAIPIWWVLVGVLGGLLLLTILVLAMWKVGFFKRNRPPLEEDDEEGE

PE-conjugated anti-human CD41a (Southern Biotech Cat. No. 9391-09) (antibody)
% positive cell binding [1]: 97% | % positive cell binding [2]: 95% | % positive cell binding [3]: 79% | % positive cell binding [4]: 78%

isotype control mouse IgM, kappa (BD Pharmingen Cat. No. 557275) (antibody)
MFI [5]: 5 MFI | % positive cell binding [6]: < 1% | % positive cell binding [7]: 3% | % positive cell binding [8]: 1% | MFI [9]: 5 MFI | MFI [10]: 5 MFI | % positive cell binding [11]: < 1% | % positive cell binding [12]: < 1% | % positive cell binding [13]: < 1% | % positive cell binding [14]: 1% | MFI [15]: 33 MFI | MFI [16]: 8 MFI | % positive cell binding [17]: 3% | MFI [18]: 7 MFI | MFI [19]: 5 MFI | MFI [20]: 4 MFI | % positive cell binding [21]: < 1% | % positive cell binding [22]: < 1% | % positive cell binding [23]: 1% | % positive cell binding [24]: < 1% | MFI [25]: 3 MFI | % positive cell binding [26]: < 1% | MFI [27]: 3 MFI | % positive cell binding [28]: 1% | MFI [29]: 10 MFI | MFI [30]: 5 MFI | MFI [31]: 4 MFI | % positive cell binding [32]: < 1% | % positive cell binding [33]: < 1% | MFI [34]: 5 MFI | MFI [35]: 6 MFI | MFI [36]: 4 MFI | % positive cell binding [37]: < 1% | MFI [38]: 13 MFI | MFI [39]: 7 MFI | % positive cell binding [40]: 4% | % positive cell binding [41]: 2% | % positive cell binding [42]: < 1% | MFI [43]: 6 MFI | MFI [44]: 5 MFI | MFI [45]: 16 MFI | MFI [46]: 4 MFI | % positive cell binding [47]: < 1% | MFI [48]: 9 MFI

anti-human transferrin receptor antibody MEM189 (Abcam Cat. No. ab1086)
% of gated cells [49]: 100%
